According to patent US20160264649A1:

Columns and labels:
Experiment in all cases: cell-based or functional assay
[1] = target: HIV-1 Env of isolate 92UG001 (subtype D) (HIV-1)
[2] = target: HIV-1 Env of isolate 92UG005 (subtype D) (HIV-1)
[3] = target: HIV-1 Env of isolate 92UG024 (subtype D) (HIV-1)
[4] = target: HIV-1 Env of isolate 92UG046 (subtype D) (HIV-1)
[5] = target: HIV-1 Env of isolate 92UG114 (subtype D) (HIV-1)
[6] = target: HIV-1 Env of isolate 98CN006 (subtype CRF08_BC) (HIV-1)
[7] = target: HIV-1 Env of isolate 98CN009 (subtype CRF07_BC) (HIV-1)
[8] = target: HIV-1 Env of isolate MGRM-D-001 (subtype D) (HIV-1)
[9] = target: HIV-1 Env of isolate MGRM-D-002 (subtype D) (HIV-1)
[10] = target: HIV-1 Env of isolate MGRM-D-003 (subtype D) (HIV-1)
[11] = target: HIV-1 Env of isolate MGRM-D-004 (subtype D) (HIV-1)
[12] = target: HIV-1 Env of isolate MGRM-D-005 (subtype D) (HIV-1)
[13] = target: HIV-1 Env of isolate MGRM-D-008 (subtype D) (HIV-1)
[14] = target: HIV-1 Env of isolate MGRM-D-011 (subtype D) (HIV-1)
[15] = target: HIV-1 Env of isolate MGRM-D-012 (subtype D) (HIV-1)
[16] = target: HIV-1 Env of isolate MGRM-D-013 (subtype D) (HIV-1)
[17] = target: HIV-1 Env of isolate MGRM-D-014 (subtype D) (HIV-1)
[18] = target: HIV-1 Env of isolate MGRM-D-016 (subtype D) (HIV-1)
[19] = target: HIV-1 Env of isolate MGRM-D-018 (subtype D) (HIV-1)
[20] = target: HIV-1 Env of isolate MGRM-D-019 (subtype D) (HIV-1)
[21] = target: HIV-1 Env of isolate MGRM-D-020 (subtype D) (HIV-1)
[22] = target: HIV-1 Env of isolate MGRM-D-021 (subtype D) (HIV-1)
[23] = target: HIV-1 Env of isolate MGRM-D-022 (subtype D) (HIV-1)
[24] = target: HIV-1 Env of isolate MGRM-D-024 (subtype D) (HIV-1)
[25] = target: HIV-1 Env of isolate MGRM-D-026 (subtype D) (HIV-1)
[26] = target: HIV-1 Env of isolate MGRM-D-028 (subtype D) (HIV-1)
[27] = target: HIV-1 Env of isolate MGRM-D-029 (subtype D) (HIV-1)
[28] = target: HIV-1 Env of isolate MGRM-F1-004 (subtype F) (HIV-1)
[29] = target: HIV-1 Env of isolate MGRM-F1-006 (subtype F) (HIV-1)
[30] = target: HIV-1 Env of isolate MGRM-F1-008 (subtype F) (HIV-1)
[31] = target: HIV-1 Env of isolate MGRM-F1-010 (subtype F) (HIV-1)
[32] = target: HIV-1 Env of isolate MGRM-F1-012 (subtype F) (HIV-1)
[33] = target: HIV-1 Env of isolate MGRM-F1-013 (subtype F) (HIV-1)
[34] = target: HIV-1 Env of isolate MGRM-F1-014 (subtype F) (HIV-1)
[35] = target: HIV-1 Env of isolate MGRM-F1-015 (subtype F) (HIV-1)
[36] = target: HIV-1 Env of isolate MGRM-F1-016 (subtype F) (HIV-1)
[37] = target: HIV-1 Env of isolate MGRM-F1-017 (subtype F) (HIV-1)
[38] = target: HIV-1 Env of isolate MGRM-F1-018 (subtype F) (HIV-1)
[39] = target: HIV-1 Env of isolate MGRM-F1-020 (subtype F) (HIV-1)
[40] = target: HIV-1 Env of isolate MGRM-F1-021 (subtype F) (HIV-1)
[41] = target: HIV-1 Env of isolate MGRM-F1-022 (subtype F) (HIV-1)
[42] = target: HIV-1 Env of isolate MGRM-F1-023 (subtype F) (HIV-1)
[43] = target: HIV-1 Env of pseudovirus isolate MGRM-G-001 (subtype G) (HIV-1)
[44] = target: HIV-1 Env of pseudovirus isolate MGRM-G-004 (subtype G) (HIV-1)
[45] = target: HIV-1 Env of pseudovirus isolate MGRM-G-006 (subtype G) (HIV-1)
[46] = target: HIV-1 Env of pseudovirus isolate MGRM-G-009 (subtype G) (HIV-1)
[47] = target: HIV-1 Env of pseudovirus isolate MGRM-G-011 (subtype G) (HIV-1)
[48] = target: HIV-1 Env of pseudovirus isolate MGRM-G-013 (subtype G) (HIV-1)
[49] = target: HIV-1 Env of pseudovirus isolate MGRM-G-014 (subtype G) (HIV-1)
[50] = target: HIV-1 Env of pseudovirus isolate MGRM-G-015 (subtype G) (HIV-1)
[51] = target: HIV-1 Env of pseudovirus isolate MGRM-G-016 (subtype G) (HIV-1)
[52] = target: HIV-1 Env of pseudovirus isolate MGRM-G-017 (subtype G) (HIV-1)
[53] = target: HIV-1 Env of pseudovirus isolate MGRM-G-019 (subtype G) (HIV-1)
[54] = target: HIV-1 Env of pseudovirus isolate MGRM-G-024 (subtype G) (HIV-1)
[55] = target: HIV-1 Env of pseudovirus isolate MGRM-G-025 (subtype G) (HIV-1)
[56] = target: HIV-1 Env of pseudovirus isolate MGRM-G-027 (subtype G) (HIV-1)
[57] = target: HIV-1 Env of pseudovirus isolate MGRM-G-028 (subtype G) (HIV-1)
[58] = target: envelope of aMLV pseudovirus (negative control)

B1: PGT-137 (antibody, V domains shown)
VH: EVHLEESGPGLVRPSETLSLTCTASGGSIRGGEWGDSDYHWGWVRHSPEKGLEWIGSIHWRGTTHYNAPFRGRGRLSIDLSRNQFSLRLTSVTAEDTAVYYCVKHKYHDIVMVVPIAGWFDPWGQGLQVTVSS
VL: EIMMTQSPAILSVSPGDRATLSCRASQSVKNNLAWYQKRPGQAPRLLIFDTSSRASGIPARFSGGGSGTEFTLTVNSMQSEDFATYYCQQYEEWPRTFGQGTKVEIK
For B1, the IC50 (neutralization) [1] was > 50 µg/mL, the IC50 (neutralization) [2] was > 50 µg/mL and the IC50 (neutralization) [3] was 0.106 µg/mL. The IC50 (neutralization) [4] was > 50 µg/mL, the IC50 (neutralization) [5] was > 50 µg/mL and the IC50 (neutralization) [6] was 1.22 µg/mL. The IC50 (neutralization) [7] was 5.06 µg/mL, the IC50 (neutralization) [8] was > 50 µg/mL and the IC50 (neutralization) [9] was > 50 µg/mL. The IC50 (neutralization) [10] was > 50 µg/mL, the IC50 (neutralization) [11] was > 50 µg/mL and the IC50 (neutralization) [12] was > 50 µg/mL. For the same binder, the IC50 (neutralization) [13] was > 50 µg/mL, the IC50 (neutralization) [14] was 6.3 µg/mL and the IC50 (neutralization) [15] was > 50 µg/mL. The IC50 (neutralization) [16] was > 50 µg/mL, the IC50 (neutralization) [17] was > 50 µg/mL and the IC50 (neutralization) [18] was > 50 µg/mL. The IC50 (neutralization) [19] was 15.1 µg/mL, the IC50 (neutralization) [20] was > 50 µg/mL and the IC50 (neutralization) [21] was > 50 µg/mL. The IC50 (neutralization) [22] was > 50 µg/mL, the IC50 (neutralization) [23] was > 50 µg/mL and the IC50 (neutralization) [24] was > 50 µg/mL. For the same binder, the IC50 (neutralization) [25] was > 50 µg/mL, the IC50 (neutralization) [26] was > 50 µg/mL and the IC50 (neutralization) [27] was > 50 µg/mL. The IC50 (neutralization) [28] was 40.3 µg/mL, the IC50 (neutralization) [29] was > 50 µg/mL and the IC50 (neutralization) [30] was > 50 µg/mL. For the same binder, the IC50 (neutralization) [31] was > 50 µg/mL, the IC50 (neutralization) [32] was > 50 µg/mL and the IC50 (neutralization) [33] was > 50 µg/mL. The IC50 (neutralization) [34] was > 50 µg/mL, the IC50 (neutralization) [35] was > 50 µg/mL and the IC50 (neutralization) [36] was > 50 µg/mL. The IC50 (neutralization) [37] was > 50 µg/mL, the IC50 (neutralization) [38] was > 50 µg/mL and the IC50 (neutralization) [39] was 1.93 µg/mL. For the same binder, the IC50 (neutralization) [40] was > 50 µg/mL, the IC50 (neutralization) [41] was 6.23 µg/mL and the IC50 (neutralization) [42] was > 50 µg/mL. For the same binder, the IC50 [43] was 41.7 µg/mL, the IC50 [44] was > 50 µg/mL and the IC50 [45] was > 50 µg/mL. For the same binder, the IC50 [46] was > 50 µg/mL, the IC50 [47] was > 50 µg/mL and the IC50 [48] was > 50 µg/mL. For the same binder, the IC50 [49] was > 50 µg/mL, the IC50 [50] was > 50 µg/mL and the IC50 [51] was > 50 µg/mL. The IC50 [52] was 34.9 µg/mL, the IC50 [53] was 0.126 µg/mL and the IC50 [54] was 0.051 µg/mL. The IC50 [55] was > 50 µg/mL, the IC50 [56] was 0.228 µg/mL and the IC50 [57] was > 50 µg/mL. For the same binder, the IC50 [58] was > 50 µg/mL.
